According to US5304631A, “Synthetic helizyme enzymes” (University of Colorado Foundation, Inc., priority 1990, dated 1994):

Assays:
Format in all cases: biochemical
[1] = Hydrolysis of ZTONP (esterase activity), followed spectrophotometrically; details: initial turnover number
Description: Kinetic studies of purified Chymohelizyme 1 were performed using ATEE, BTEE or ZTONP as the substrate.
The progress of the reaction was followed spectrophotometrically. Progress of the hydrolysis of ATEE was followed by titration.

[2] = Hydrolysis of ATEE (esterase activity), followed by titration; details: pH 8.1, 0.05 molar sodium chloride solution
Description: Hydrolysis of ATEE at pH 8.1 in 0.05 molar sodium chloride solution followed classical Michaelis-Menten kinetics; kM=1.0 mM and kcat=0.042/sec(corresponding values for chymotrypsin are 0.7 mM; 3.0/sec), showing an activity approximately 1% that of chymotrypsin for this substrate.
Hydrolysis of BTEE and ZTONP were performed as described (Meth. Enzymol. volume XIX, Academic Press, New York, 1970, pp. 38-41). The progress of the reaction was followed spectrophotometrically. Progress of the hydrolysis of ATEE was followed by titration.

[3] = test system: monomeric Chymohelizyme 1; assay: Inhibition of substrate hydrolysis by Chymohelizyme 1 by specific chymotrypsin inhibitors
Text: Inclusion of indole at a concentration equal to that of the substrate ZTONP caused approximately 70% inhibition of substrate hydrolysis.

Compound	turnover number [1]	Km [2]	kcat [2]	inhibition of hydrolysis of substrates by monomeric Chymohelizyme 1 [3]	inhibition of substrate hydrolysis ([3]; inhibitor at a concentration equal to that of the substrate ZTONP)
chymotrypsin	300 s⁻¹	700 µM	3.0 s⁻¹		
c1ccc2[nH]ccc2c1 [indole]				inhibited	approximately 70%
Cc1ccc(O)cc1 [p-cresol]				inhibited	
